Measured values reported in PMC2783309 (Experimental cell research, 2009).

Molecular target: Biotinylated Clostridium difficile toxin A (Clostridium difficile strain VPI 10463, UniProt P16154 1-2710)
Assay: pull-down

Biotinylated Clostridium difficile toxin A, sequence (P16154 whole entry): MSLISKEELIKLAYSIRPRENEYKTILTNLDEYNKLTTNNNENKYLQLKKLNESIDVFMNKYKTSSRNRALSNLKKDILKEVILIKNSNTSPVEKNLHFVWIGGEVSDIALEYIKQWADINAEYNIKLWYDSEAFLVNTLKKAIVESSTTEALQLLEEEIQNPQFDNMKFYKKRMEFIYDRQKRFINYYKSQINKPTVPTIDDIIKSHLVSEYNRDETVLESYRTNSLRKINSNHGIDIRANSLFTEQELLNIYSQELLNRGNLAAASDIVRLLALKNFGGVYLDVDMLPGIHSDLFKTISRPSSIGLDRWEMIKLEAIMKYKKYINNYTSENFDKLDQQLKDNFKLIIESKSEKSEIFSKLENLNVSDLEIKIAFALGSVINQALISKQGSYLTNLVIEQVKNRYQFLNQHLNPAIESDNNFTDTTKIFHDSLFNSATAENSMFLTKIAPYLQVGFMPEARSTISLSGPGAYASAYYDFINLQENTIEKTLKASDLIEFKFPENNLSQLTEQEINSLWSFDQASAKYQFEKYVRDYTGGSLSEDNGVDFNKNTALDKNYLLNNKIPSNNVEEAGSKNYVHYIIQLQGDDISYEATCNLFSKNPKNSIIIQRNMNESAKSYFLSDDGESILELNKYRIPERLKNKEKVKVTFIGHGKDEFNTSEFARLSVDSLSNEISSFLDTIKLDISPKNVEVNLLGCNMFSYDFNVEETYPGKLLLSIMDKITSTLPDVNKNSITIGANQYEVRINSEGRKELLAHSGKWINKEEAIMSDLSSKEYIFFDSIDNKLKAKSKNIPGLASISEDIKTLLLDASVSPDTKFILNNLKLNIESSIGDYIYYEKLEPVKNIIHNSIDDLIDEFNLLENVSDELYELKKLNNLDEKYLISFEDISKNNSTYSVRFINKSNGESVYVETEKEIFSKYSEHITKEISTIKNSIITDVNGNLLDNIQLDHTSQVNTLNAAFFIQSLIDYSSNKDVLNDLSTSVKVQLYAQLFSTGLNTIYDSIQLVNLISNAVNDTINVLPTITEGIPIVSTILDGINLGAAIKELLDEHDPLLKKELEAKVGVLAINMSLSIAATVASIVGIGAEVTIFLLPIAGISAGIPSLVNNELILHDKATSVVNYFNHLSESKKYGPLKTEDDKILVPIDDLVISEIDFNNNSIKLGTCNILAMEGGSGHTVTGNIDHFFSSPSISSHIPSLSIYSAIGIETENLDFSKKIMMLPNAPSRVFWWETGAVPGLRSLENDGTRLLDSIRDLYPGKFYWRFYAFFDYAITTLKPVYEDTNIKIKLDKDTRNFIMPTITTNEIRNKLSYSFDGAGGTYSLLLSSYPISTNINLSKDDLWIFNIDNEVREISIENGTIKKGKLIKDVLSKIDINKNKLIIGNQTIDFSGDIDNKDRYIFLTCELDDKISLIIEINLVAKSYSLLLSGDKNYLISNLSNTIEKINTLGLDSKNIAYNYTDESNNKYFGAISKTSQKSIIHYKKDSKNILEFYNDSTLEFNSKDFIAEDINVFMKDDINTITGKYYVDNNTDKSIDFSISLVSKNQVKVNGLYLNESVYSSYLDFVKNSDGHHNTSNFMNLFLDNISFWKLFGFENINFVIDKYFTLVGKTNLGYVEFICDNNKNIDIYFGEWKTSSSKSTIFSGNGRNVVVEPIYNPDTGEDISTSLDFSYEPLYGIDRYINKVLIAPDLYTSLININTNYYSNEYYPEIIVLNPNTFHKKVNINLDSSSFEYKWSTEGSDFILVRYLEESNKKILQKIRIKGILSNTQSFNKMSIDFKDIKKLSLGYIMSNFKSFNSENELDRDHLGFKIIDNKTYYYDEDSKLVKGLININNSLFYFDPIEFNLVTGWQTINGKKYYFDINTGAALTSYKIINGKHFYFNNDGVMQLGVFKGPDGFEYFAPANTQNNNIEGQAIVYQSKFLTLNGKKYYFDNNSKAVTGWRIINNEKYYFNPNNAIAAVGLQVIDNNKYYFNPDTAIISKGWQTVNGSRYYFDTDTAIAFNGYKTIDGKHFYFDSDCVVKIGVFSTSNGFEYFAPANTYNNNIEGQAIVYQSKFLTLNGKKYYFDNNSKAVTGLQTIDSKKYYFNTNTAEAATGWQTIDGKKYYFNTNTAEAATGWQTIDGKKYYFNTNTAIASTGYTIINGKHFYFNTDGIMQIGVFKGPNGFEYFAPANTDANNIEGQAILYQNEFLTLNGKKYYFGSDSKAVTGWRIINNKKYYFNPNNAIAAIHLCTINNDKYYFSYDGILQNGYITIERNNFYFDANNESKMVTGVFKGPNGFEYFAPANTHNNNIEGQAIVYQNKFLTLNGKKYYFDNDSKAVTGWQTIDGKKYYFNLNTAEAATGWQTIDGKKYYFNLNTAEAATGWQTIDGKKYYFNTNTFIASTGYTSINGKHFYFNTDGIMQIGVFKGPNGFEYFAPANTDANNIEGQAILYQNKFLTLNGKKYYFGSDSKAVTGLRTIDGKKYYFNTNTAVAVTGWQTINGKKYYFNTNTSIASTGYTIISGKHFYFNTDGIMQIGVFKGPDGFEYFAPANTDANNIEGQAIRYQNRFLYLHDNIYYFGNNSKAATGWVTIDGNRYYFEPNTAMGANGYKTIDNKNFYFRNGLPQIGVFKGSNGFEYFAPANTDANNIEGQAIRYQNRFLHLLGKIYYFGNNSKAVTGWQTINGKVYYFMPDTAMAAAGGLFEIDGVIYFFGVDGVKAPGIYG

B1: GST-Src catalytic domain (domain or fragment, UniProt P12931-1 226-536, looked up)
chain: LQQLVAYYSKHADGLCHRLTTVCPTSKPQTQGLAKDAWEIPRESLRLEVKLGQGCFGEVWMGTWNGTTRVAIKTLKPGTMSPEAFLQEAQVMKKLRHEKLVQLYAVVSEEPIYIVTEYMSKGSLLDFLKGETGKYLRLPQLVDMAAQIASGMAYVERMNYVHRDLRAANILVGENLVCKVADFGLARLIEDNEYTARQGAKFPIKWTAPEAALYGRFTIKSDVWSFGILLTELTTKGRVPYPGMVNREVLDQVERGYRMPCPPECPESLHDLMCQCWRKEPEERPTFEYLQAFLEDYFTSTEPQYQPGENL
  binding result: binds
